Laboratory results published in PMC6484134 (The Journal of Biological Chemistry, 2019).

Assays:
[1] = target: T1, Cul3NΔ22 (human Cul3 N-terminal domain, residues 23–388, I342R L346D) (human, UniProt Q13618 23-388, I342R | L346D); test: ITC; 25 °C; 20 mM HEPES, 200 mM NaCl, 1 mM DTT; […] (70–[…]) […]; settings: both partners purified
T1 construct: also called Cul3–NTD; Cu3NΔ22

[2] = target: T2, Cul3N (human Cul3 N-terminal domain, residues 1–388, I342R L346D) (human, UniProt Q13618 1-388, I342R | L346D); test: as above; settings: both partners purified
T2 construct: also called Cul3–NTD

[3] = target: the molecule itself; test: […]; room temperature; […]; 20 mM HEPES, 150 mM NaCl, 2 mM DTT; […]

T1 sequence (Q13618 23-388 I342R/L346D): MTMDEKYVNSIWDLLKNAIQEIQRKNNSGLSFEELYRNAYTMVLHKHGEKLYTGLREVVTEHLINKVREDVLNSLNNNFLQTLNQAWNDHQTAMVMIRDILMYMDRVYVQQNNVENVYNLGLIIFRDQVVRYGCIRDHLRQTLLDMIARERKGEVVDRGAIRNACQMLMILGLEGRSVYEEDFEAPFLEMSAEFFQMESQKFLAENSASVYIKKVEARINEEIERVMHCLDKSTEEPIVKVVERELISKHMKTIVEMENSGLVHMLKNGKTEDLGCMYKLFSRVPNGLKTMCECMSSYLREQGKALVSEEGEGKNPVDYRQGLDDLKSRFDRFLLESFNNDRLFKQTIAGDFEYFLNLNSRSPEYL
T2 sequence (Q13618 1-388 I342R/L346D): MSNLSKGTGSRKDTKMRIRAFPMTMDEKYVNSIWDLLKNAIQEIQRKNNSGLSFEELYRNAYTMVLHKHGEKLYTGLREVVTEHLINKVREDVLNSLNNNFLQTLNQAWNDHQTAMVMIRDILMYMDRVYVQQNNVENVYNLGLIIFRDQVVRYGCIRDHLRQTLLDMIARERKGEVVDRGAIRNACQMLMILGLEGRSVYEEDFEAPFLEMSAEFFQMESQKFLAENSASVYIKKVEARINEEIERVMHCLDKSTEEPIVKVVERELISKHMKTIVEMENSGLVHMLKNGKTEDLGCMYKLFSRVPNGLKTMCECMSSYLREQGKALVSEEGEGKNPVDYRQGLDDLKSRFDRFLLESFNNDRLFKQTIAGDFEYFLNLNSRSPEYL

B1: A55BB (A55 BTB-BACK domain, residues 1–250), wild type (domain or fragment)
chain: MNNSSELIAVINGFRNSGRFCDISIVINDERINAHKLILSGASEYFSILFSNNFIDSNEYEVNLSHLDYQSVNDLIDYIYGIPLSLTNDNVKYILSTADFLQIGSAITECENYILKNLCSKNCIDFYIYADKYNNKKIESASFNTILQNILRLINDENFKYLTEESMIKILSDDMLNIKNEDFAPLILIKWLESTQQSCTVELLRCLRISLLSPQVIKSLYSHQLVSSIYECITFLNNIAFLDESFPRYH
[1]
  Kd: 5.3 nM
  dH: -9.9 kcal/mol
[2]
  Kd: < 1 nM
  dH: -17.7 kcal/mol
[3]
  stoichiometry N: 2
